According to patent publication US20190185562A1 (Regeneron, published 2019):

Key:
[1] = target: T1, full length (FL) human gp130 over-expressed on HEK293/Stat3-luc/gp130-2X Sort cells (human, UniProt P40189 23-918); assay: FACS, 10 nM mAb, 293/Stat3-luc/GP130 2X sort cells
T1 construct: whole, on cells
T1 sequence (looked up): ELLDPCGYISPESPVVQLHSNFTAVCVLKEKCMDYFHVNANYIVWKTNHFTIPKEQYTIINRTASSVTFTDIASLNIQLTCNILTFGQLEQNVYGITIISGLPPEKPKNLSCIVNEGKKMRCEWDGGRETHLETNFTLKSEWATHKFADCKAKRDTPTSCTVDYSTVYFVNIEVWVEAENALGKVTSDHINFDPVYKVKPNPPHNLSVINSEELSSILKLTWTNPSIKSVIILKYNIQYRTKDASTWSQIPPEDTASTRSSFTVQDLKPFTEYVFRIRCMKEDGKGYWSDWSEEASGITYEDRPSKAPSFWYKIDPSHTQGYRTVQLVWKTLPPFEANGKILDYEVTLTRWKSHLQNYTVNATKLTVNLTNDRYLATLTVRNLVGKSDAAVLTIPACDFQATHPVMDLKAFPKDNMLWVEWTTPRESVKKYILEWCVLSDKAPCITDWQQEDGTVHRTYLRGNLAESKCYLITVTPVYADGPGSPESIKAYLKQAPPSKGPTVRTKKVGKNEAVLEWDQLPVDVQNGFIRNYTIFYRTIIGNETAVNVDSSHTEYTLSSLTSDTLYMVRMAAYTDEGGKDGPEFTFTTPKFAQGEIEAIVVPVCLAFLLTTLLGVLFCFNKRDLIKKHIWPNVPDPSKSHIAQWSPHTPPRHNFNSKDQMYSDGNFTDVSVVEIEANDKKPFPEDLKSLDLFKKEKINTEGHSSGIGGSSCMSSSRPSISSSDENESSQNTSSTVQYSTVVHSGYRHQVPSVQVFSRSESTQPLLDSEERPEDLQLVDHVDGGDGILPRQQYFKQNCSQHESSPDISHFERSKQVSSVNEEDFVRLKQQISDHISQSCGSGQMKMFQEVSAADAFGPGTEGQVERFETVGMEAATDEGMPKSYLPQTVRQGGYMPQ
Source text: (§1) In order to assess cell binding by anti-GP130 antibodies of the invention two cell lines were generated. One cell line generated was HEK293 cells stably over-expressing full length (FL) human gp130 (amino acids 1-918 of accession # P40189 with leucine at position 2 changed to valine, a natural variant) along with a luciferase reporter (Stat3-luciferase, Stat3-luc, SA Bioscience, #CLS-6028L). The cells were sorted twice using flow cytometry for high expression of gp130. It is known hereafter as HEK293/Stat3-luc/gp130-2X Sort. IMR-32 cells (human Neuroblastoma, ATCC), were also evaluated for cell binding as these cells express gp130 endogenously and were used for bioassays. The cells used for binding were generated to stably express a luciferase reporter (Stat3-luciferase, Stat3-luc, SA Bioscience, #CLS-6028L), and are referred to hereafter as IMR-32/STAT3-Luc cells.
(§2) For the FACS analysis, 10 nM of the antibodies were used to stain 0.5×10^6 cells/well of each cell type at 4° C. in PBS (without calcium and magnesium) containing 2% FBS for 30 minutes. IMR-32/STAT3-luc cells were incubated with 1 mg/mL mouse IgG for 30 minutes at 4° C. to block Fc receptors prior to adding the antibodies. To test whether the anti-gp130 antibody binding is specific for gp130 on the IMR-32 cells, antibodies were added to IMR-32/Stat3-luc cells with or without being pre-bound to 1000 nM of recombinant protein of the ecto-domain of human gp130 fused to myc-myc-his tag (hgp130.mmh) for 30 minutes at 25° C. […] Cells were fixed using BD CytoFix™ (Becton Dickinson, #554655) and analyzed on an IQue® (Intellicyt®) Flow Cytometer. Unstained and secondary antibody alone controls were also tested for all cell lines. The results were analyzed using ForeCyt® (IntelliCyt®) software to determine the geometric means of fluorescence for viable cells.

[2] = target: T2, human gp130 expressed endogenously on IMR-32/Stat3-luc cells (human, UniProt P40189 23-918); assay: FACS, 10 nM mAb, IMR-32/Stat3-luc cells, no hGP130.mmh
T2 construct: whole, on cells
T2 sequence (looked up): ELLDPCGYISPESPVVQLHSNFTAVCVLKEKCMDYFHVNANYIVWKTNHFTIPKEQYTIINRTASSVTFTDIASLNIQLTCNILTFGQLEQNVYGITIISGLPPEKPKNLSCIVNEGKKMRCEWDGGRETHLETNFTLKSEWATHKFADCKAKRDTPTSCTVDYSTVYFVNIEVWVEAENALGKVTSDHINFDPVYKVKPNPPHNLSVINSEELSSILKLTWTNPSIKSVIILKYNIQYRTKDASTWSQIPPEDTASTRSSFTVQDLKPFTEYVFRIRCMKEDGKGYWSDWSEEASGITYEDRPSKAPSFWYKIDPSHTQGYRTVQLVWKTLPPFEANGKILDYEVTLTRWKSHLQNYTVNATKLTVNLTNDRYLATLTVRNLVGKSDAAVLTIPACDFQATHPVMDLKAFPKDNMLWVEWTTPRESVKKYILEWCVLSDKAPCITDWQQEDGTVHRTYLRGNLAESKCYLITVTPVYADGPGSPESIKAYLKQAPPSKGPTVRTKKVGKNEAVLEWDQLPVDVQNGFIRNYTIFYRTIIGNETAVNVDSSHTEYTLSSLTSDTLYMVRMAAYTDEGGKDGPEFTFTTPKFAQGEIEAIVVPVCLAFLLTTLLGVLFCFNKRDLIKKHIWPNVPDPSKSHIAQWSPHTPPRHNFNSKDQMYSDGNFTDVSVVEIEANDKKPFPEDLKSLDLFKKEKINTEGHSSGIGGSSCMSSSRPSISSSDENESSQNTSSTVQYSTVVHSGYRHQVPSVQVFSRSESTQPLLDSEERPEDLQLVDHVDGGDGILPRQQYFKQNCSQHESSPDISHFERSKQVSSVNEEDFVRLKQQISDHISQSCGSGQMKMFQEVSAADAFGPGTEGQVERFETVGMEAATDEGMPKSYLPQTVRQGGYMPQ
Source text: as §1, §2

[3] = target: T2, human gp130 expressed endogenously on …; assay: FACS, 10 nM mAb, IMR-32/Stat3-luc cells, competitor 1 uM hGP130.mmh
Source text: as §1, §2

[4] = target: T3, human gp130 extracellular domain with the Fc portion of mouse IgG2a at the C-terminus (human); assay: blocking ELISA, 2.5 nM hGP130-mFc to plate-bound CNTFR/CNTF complex; * below the lower limit of quantitation of 1.25E-09 M
T3 construct: Dimeric; also called hGP130-mFc; dimeric GP130 protein
T3 chain: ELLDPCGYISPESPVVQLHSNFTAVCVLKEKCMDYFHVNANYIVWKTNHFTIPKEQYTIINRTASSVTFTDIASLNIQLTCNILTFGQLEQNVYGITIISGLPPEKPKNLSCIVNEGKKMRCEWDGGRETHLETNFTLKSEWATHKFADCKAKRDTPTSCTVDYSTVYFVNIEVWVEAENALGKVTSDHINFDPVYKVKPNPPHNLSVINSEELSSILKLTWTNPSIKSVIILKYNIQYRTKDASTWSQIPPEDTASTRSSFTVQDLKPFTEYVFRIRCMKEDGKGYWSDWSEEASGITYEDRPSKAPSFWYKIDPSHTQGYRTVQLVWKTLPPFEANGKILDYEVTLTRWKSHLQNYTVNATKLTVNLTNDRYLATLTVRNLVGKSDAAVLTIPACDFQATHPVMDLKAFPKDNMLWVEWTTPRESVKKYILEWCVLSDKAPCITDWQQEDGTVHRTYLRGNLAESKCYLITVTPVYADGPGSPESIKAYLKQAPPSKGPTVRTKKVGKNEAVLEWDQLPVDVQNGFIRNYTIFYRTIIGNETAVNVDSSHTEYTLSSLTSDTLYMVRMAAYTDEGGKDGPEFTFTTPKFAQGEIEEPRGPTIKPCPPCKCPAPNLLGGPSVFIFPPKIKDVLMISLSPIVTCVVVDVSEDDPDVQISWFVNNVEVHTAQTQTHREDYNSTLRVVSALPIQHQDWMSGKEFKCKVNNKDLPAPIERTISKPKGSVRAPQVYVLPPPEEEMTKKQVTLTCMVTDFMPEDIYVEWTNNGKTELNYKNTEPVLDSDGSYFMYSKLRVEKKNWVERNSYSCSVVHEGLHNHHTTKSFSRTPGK
Experimental: The experiment was carried out using the following procedure. Human CNTFRα was coated at a concentration of […] in HBSS on a 96-well microtiter plate overnight at 4° C. […] Human CNTF at a concentration of 1 μg/ml in HBSS was added to the plate bound CNTFRα for 1 hour at room temperature. In separate dilution plates, a constant amount of 2.5 nM of human GP130-mFc protein was titrated with antibodies ranging from 3.4 pM to 200 nM in serial dilution and with no antibody present. These solutions were incubated for 1 hour at room temperature (RT) and subsequently transferred to the microtiter plates with CNTFRα/CNTF complex without washing. The plates were incubated for 2 hours at RT, washed with PBST buffer, and plate-bound hGP130-mFc was detected with an anti-mFc polyclonal antibody conjugated with horseradish peroxidase (HRP) (Jackson ImmunoResearch Inc). Samples were developed with a TMB solution (BD Biosciences, substrate A and B mixed at 1:1 ratio as per manufacturer's instructions) to produce a colorimetric reaction and then neutralized with 1M sulfuric acid before measuring absorbance at 450 nm on a Victor ×5 plate reader.

B1: MAb16666 (antibody, V domains shown)
VH: EVQLVESGGGLVQSGGSLRLSCAASGFTFSRYEMNWVRQAPGKGLEWVAYISNTGTTRDYSDSVKGRFTISRDNAKNSLYLQMSSLRVEDTAVYYCVREKFSGTSDWFDPWGQGTLVTVSS
VL: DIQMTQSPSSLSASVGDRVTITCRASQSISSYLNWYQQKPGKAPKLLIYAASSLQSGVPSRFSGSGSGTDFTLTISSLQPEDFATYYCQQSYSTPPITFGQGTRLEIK
notes: Variable domains only
[1]
  MFI - Normalized to Unstained Control: 159
[2]
  MFI - Normalized to Unstained Control: 23
[3]
  MFI - Normalized to Unstained Control: 8
[4]
  IC50: < 1.25 nM
